Laboratory results: US6428781B1, “Composition of an endogenous insulin-like growth factor-II derivative” (Daiichi Pharmaceutical Co., Ltd., priority 1996, dated 2002)
Values belong to the molecule of their own block, whether it stands above or below them.

What was measured:
[1] = molecular target: IGF-II/cation-independent mannose-6-phosphate receptor (Homo sapiens, UniProt P11717); conditions: Sakano et al. 1991; cited from earlier work
IGF-I receptor = IGF-I receptor (Homo sapiens, UniProt P08069); conditions: Sakano et al. 1991; cited from earlier work
insulin receptor = insulin receptor (Homo sapiens, UniProt P06213); conditions: Sakano et al. 1991; cited from earlier work
cell proliferation = conditions: Sakano et al. 1991; cited from earlier work
IGFBP-3 = IGFBP-3 (Homo sapiens, UniProt P17936); conditions: Bach et al. 1993; cited from earlier work
IGFBP-3, sequence (P17936 28-291, species assumed): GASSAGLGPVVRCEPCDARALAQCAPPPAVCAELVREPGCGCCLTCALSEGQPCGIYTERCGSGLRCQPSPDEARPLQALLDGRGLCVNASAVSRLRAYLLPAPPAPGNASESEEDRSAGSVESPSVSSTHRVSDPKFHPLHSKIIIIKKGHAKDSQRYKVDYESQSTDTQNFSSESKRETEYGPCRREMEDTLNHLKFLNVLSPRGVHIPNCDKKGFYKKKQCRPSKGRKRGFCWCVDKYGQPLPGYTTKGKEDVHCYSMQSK

[2] = molecular target: T1, rat IGFBP-3 (RBP-3 E. coli) (Rattus norvegicus, UniProt P15473); assay: Solid-phase binding of HRP-IGF-II to immobilized IGFBP-3, competitive inhibition; conditions: for inhibitory activity against the binding of IGF-II to IGFBP-3 (RBP-3 E. coli): final concentration of each compound 100 μg/ml, compared to the other test compounds of Table 1
T1 construct: made in house; host or cells: Escherichia coli (periplasm)
T1 sequence (P15473 28-292): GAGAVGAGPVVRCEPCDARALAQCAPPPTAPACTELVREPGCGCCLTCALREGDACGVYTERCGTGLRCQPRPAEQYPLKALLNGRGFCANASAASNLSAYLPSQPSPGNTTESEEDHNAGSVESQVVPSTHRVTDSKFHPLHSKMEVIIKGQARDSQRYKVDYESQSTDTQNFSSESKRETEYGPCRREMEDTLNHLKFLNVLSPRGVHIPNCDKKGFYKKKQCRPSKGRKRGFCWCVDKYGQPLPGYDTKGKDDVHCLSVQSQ
Description: A 96-well microtiter plate manufactured by Costar Corp.; 50 mM sodium phosphate buffer (pH 6.5) as a basic buffer for immuobilization; basic buffer supplemented with 0.03% Tween 20, basic buffer supplementee with 1% BSA and basic buffer supplemented with 0.25% BSA an 0.03% Tween 20 were used in the washing, blocking and binding steps, respectively. After each reaction, wells were washed twice with 400 μl/well of buffer. Horseradish peroxidase-labeled IGF-II (hereinafter “HRP-IGF-II”) was prepared using a commercially available kit (PIERCE Chemichal Company).
To the microtiter plate, RBP-3 E. coli (150 ng/ml) was added in an amount of 50 μl/well and allowed to stand overnight at 4° C. for immobilization. After blocking, 50 μl/well of HRP-IGF-II (final concentration diluted 12,000-fold) was added at 25° C. for 2 hours in the presence or absence of a test compound. Test compounds at various concentrations were added to each well in a total volume of 50 μl.
In the final step, a solution of 2,2′-azino-bis(3-ethylbenzthiazoline-6-sulfonic acid) (hereinafter “ABTS”; Kirkegaard & Perry Laboratories) was added to each well (100 μl/well) and allowed to stand at room temperature. The absorbance (O.D.) at 405 nm was measured on a plate reader (“VMAX™”, Molecular Devices).
The absorbance in the absence of a test compound is designated “B0”, and in the presence of a test compound is designated as “B”. The absorbance in the absence of both a test compound and using a non-immobilized well (a well not containing RBP-3 E. coli) is designated as nonspecific bound (NSB). The percent binding of labeled IGF-II to immobilized IGFBP-3 in the presence of a test compound is calculated from the following equation: […]
The binding reactions for each of the test compounds, was performed triplicate. The average value is plotted and the SD value is indicated with a bar (refer to FIG. 8).
Each compound was dissolved or suspended in basic buffer containing 5% methanol at a final concentration of 1 mg/ml. The resulting solution or suspension was diluted with the reaction buffer 5-fold or to a final concentration of 200 μg/ml. The final concentration of each compound at the time of measurement was 100 μg/ml.
The percent binding of IGF-II to IGFBP-3 (RBP-3 E. coli) in the presence of a test compound was calculated using the following formula:
“percent total bound (100(%))−percent actual bound (%)”=percent inhibitory activity (%) of the test specimen.
Measurements for each of the test compounds were performed twice, and the average inhibitory activity was determined.

[3] = Evaluation of blood lipid level (1), nonfasting SD rats; type: in vivo; conditions: plasma; for total glyceride concentration 6 hours after administration, compared to negative control: IGF-I 50 μg/kg s.c., anti-RBP-3 pAb #35 20 mg/head i.p.; for total glyceride concentration 6 hours after administration, compared to negative control / total cholesterol concentration 24 hours after administration, compared to negative control: [Leu27, Leu43]rIGF-II 1,000 μg/kg s.c.
Description: [Leu27, Leu43]rIGF-II (1,000 μg/kg) was administered, subcutaneously, to a group of nonfasting SD rats (n=3, 8 weeks old, male, average weight: 300 g, purchased from Charles River Japan).
Anti-RBP-3 pAb #35 (20 mg/head) was administered, intraperitoneally, to another group of SD rats.
As a negative control, physiological saline (500 μl/head) was administered, subcutaneously, and as a positive control group, IGF-I (50 μg/kg, 200 μg/kg) was administered, subcutaneously.
About 500 μl of blood was sequentially collected into EDTA-coated glass tubes from the caudal vein. Thirty minutes after collection, the blood was centrifuged (3,500 rpm×12 mm 25° C.), and plasma supernatant was recovered and stored at −80° C. until assayed. The total cholesterol and total triglyceride concentrations of the plasma were measured in accordance with a “Hitachi 715 model” automatic analyzer using the enzyme method of “Autocera CH02 and TG2” (each, manufactured by Daiichi Pure Chemicals Co., Ltd.).

[4] = adult humans, intravenous injection, 100 μg/kg; Guler et al. 1987; cited from earlier work
[5] = molecular target: T2, human placental IGF-I receptor (Homo sapiens, UniProt P08069); assay: IGF-I receptor radioreceptor binding assay with 125I-IGF-I
T2 construct: human placental IGF-I receptor; from tissue; host or cells: human placenta
Description: (§1) The [Leu27, Leu43]rIGF-II derivative described in Example 8, was characterized for its binding affinity to human placental IGF-I receptor and human placental insulin receptor using a radioreceptor assay (Le Bon, T. R., et al., J. Biol. Chem., 261, 7685 (1986); Fujita-Yamaguchi, Y., et al., J. Biol. Chem., 258, 5045 (1983)).
(§2) In the first step, ^125I-IGF (or ^125I-insulin) (Amersham International plc) in an amount of 2×10^4 cpm was incubated with various amounts of the IGF receptor or the insulin receptor, to determine an amount of the receptor to which 50% of ^125I-IGF (or ^125I-insulin) binds.
(§3) [Leu27, Leu43]rIGF-II was added at various concentrations to aliquots of the mixture containing the determined amount of the receptor and ^125I-IGF (or ^125I-insulin) (2×10^4 cpm). The final volume of the reaction mix was brought to […] using a 50 mM Tris-HCl buffer (pH 7.4) containing 0.1% BSA and 0.075% Triton X-100, and allowed to incubate overnight at 4° C. […] The reaction mixture was centrifuged (3000 rpm×30 min, 4° C.), the supernatant decanted, and the cpm value for the pellet was measured by gamma counting. […]
(§4) The cpm value in the absence of a receptor is designated as nonspecific bound (NSB). […] The percent binding to a receptor is calculated from the following equation: […]

[6] = molecular target: T3, human placental insulin receptor (Homo sapiens, UniProt P06213); assay: Insulin receptor radioreceptor binding assay with 125I-insulin
T3 construct: human placental insulin receptor; from tissue; host or cells: human placenta
Description: as §1, §2, §3, §4

IGF-II/cation-independent mannose-6-phosphate receptor, sequence (P11717 41-2491): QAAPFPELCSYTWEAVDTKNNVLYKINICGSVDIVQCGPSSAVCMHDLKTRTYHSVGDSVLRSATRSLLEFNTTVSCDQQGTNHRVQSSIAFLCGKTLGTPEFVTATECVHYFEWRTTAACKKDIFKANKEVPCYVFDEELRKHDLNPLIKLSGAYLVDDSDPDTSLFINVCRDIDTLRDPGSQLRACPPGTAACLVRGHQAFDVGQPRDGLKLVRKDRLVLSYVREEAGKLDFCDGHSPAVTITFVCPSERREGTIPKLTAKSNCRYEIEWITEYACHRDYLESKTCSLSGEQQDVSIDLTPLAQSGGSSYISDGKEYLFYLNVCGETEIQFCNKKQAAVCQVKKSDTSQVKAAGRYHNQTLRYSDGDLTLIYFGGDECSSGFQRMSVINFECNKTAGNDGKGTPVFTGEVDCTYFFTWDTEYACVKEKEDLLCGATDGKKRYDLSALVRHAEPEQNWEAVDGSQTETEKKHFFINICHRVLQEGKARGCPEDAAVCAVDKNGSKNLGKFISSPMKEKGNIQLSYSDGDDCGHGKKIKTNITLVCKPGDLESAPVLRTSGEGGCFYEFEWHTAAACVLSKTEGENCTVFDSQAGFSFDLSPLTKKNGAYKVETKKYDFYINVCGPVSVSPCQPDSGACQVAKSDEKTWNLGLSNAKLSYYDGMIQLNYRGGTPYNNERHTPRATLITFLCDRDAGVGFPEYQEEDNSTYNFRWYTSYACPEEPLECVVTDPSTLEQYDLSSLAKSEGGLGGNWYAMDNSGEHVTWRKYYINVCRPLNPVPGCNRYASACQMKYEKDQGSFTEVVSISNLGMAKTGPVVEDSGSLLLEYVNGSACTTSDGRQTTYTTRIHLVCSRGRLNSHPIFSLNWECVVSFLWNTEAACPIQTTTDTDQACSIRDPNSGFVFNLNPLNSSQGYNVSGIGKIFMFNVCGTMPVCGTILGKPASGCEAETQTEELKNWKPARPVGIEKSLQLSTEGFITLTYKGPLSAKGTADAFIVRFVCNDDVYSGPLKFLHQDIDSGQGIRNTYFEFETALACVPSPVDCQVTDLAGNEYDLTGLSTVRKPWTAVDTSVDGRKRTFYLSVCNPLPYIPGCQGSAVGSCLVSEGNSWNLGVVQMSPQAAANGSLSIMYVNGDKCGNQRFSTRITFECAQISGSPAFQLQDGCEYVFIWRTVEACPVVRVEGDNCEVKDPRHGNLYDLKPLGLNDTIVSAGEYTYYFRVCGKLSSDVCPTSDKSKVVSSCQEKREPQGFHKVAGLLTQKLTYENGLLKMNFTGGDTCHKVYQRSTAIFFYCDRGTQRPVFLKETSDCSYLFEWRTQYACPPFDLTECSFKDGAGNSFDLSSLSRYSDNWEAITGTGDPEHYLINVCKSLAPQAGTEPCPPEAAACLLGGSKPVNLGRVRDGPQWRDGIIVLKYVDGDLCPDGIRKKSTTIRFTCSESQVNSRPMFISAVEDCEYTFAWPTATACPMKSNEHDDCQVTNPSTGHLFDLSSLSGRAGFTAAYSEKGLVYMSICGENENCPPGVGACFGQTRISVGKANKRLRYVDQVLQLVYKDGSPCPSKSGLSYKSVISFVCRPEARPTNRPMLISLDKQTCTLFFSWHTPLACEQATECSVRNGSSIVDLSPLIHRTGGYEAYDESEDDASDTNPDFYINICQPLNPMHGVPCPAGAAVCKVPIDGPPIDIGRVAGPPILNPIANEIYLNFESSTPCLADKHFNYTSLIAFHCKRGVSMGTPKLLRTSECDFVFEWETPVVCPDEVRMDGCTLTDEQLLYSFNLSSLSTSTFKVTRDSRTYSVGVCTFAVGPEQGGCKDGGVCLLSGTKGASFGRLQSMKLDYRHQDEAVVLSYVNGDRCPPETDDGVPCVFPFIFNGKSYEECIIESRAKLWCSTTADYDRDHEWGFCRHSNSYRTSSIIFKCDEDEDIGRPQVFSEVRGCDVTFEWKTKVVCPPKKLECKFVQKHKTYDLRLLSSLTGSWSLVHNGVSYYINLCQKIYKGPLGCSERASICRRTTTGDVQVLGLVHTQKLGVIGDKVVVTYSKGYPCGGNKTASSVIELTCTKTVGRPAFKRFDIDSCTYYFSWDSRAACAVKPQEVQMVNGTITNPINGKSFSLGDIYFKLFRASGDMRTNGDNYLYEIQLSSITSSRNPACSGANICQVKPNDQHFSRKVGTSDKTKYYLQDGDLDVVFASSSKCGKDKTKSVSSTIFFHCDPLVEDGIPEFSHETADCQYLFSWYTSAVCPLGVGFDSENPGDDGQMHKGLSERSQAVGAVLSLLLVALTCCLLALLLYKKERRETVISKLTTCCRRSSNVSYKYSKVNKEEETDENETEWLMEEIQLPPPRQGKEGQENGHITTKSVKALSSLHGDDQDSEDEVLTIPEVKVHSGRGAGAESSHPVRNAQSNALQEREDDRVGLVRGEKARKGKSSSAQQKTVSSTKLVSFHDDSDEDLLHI

Molecule: [Leu 27] rIGF-II: human IGF-II derivative with a single amino acid substitution (Leu at position 27), from the literature
binding to the IGF-II/cation-independent mannose-6-phosphate receptor [1]: bind
binding to the IGF-I receptor (IGF-I receptor): almost no binding
binding to the insulin receptor (insulin receptor): almost no binding
effect on cell proliferation (cell proliferation): significantly lowered effect
binding to IGFBP-3 compared to wild type (IGFBP-3): almost similar to the wild type

inhibitory activity against the binding of IGF-II to IGFBP-3 (RBP-3 E. coli) [2]: potent inhibitory activity
Molecule: O=c1oc2c(O)c(O)cc3c(=O)oc4c(O)c(O)cc1c4c23 [Compound 27, Ellagic acid]

inhibitory activity against the binding of IGF-II to IGFBP-3 (RBP-3 E. coli) [2]: potent inhibitory activity
Molecule: Heparin [Compound 31]

Molecule: IGF-I: Human IGF-I purchased from GroPep Pty. Ltd.; positive control
total glyceride concentration 6 hours after administration, compared to negative control [3]: significantly decreased
total cholesterol concentration 6 hours after administration, compared to negative control ([3]; IGF-I 200 μg/kg s.c.): significantly decreased
total cholesterol concentration 24 hours after administration, compared to negative control ([3]; IGF-I 200 μg/kg s.c.): significantly decreased
blood glucose levels [4]: lowering of blood glucose levels
time of lowest blood glucose level after injection [4]: 20 min

Molecule: [Leu 43] rIGF-II: human IGF-II derivative with a single amino acid substitution (Leu at position 43), from the literature
binding to the IGF-II/cation-independent mannose-6-phosphate receptor [1]: bind
binding to the IGF-I receptor (IGF-I receptor): almost no binding
binding to the insulin receptor (insulin receptor): almost no binding
effect on cell proliferation (cell proliferation): significantly lowered effect
binding to IGFBP-3 compared to wild type (IGFBP-3): almost similar to the wild type

Molecule: CC[C@@]1(O)C[C@H](O[C@H]2C[C@H](N(C)C)[C@H](O[C@H]3C[C@H](O)[C@H](O[C@H]4CCC(=O)[C@H](C)O4)[C@H](C)O3)[C@H](C)O2)c2c(cc3c(c2O)C(=O)c2c(O)cccc2C3=O)[C@H]1C(=O)OC [Compound 29, Aclacinomycin A]
inhibitory activity against the binding of IGF-II to IGFBP-3 (RBP-3 E. coli) [2]: potent inhibitory activity

affinity for IGFBP-3 [2]: has affinity for IGFBP-3
affinity for / binding to the IGF-I receptor [5]: little or no binding
affinity for the IGF-I receptor, as % of that for IGF-I [5]: 1 to 2%
affinity for / binding to the insulin receptor [6]: little or no binding
affinity for the insulin receptor, as % of that for insulin [6]: 1 to 2%
Molecule: [Leu27, Leu43]rIGF-II: human IGF-II derivative; tyrosine at residue 27 and valine at residue 43 each replaced with leucine
inhibition of the binding of IGF (labeled IGF-II) and immobilized IGFBP-3 ([2]; procedure of Example 10): at concentrations similar to those seen for IGF-II
total glyceride concentration 6 hours after administration, compared to negative control [3]: tendency toward lowering
total cholesterol concentration 24 hours after administration, compared to negative control ([3]; IGF-I 200 μg/kg s.c.): significant decrease
